B1: XRE (recombinant) (natural protein, M. smegmatis, UniProt A0QQY3 1-142, looked up)
chain: MAQDENLAAVVSNAAQDIGSFIRAQREAAQVSVRQLAEKAGVSNPYLSQIERGLRKPSADVLNQIAKALRVSAEVLYVRAGILEPSEPSEVRDAIVNDVSITERQKQVLLDIYTSFRQQNEAAGEPEGAAVIPSPDEEPATD
notes: H7-SUMO tags were removed with Ulp1 or left intact for microscale thermophoresis; also called Transcriptional regulator, XRE family protein
B2: Magnesium chelatase (recombinant) (natural protein, M. smegmatis, UniProt A0R3L1 1-461, looked up)
chain: MVSQPKDLPRTVGELRASGHRERGVKAEIRENLLAALAERRDVWPGILGFEDTVIPQLERALIAGHDVVLLGERGQGKTRLLRALTGLLDEWTPVIAGSELGEHPYSPITPESIRRAADSGDDLPVEWRHRSERYTEKLATPDTSVADLVGDIDPIKVAEGRSLGDPETIAYGLIPRAHRGIVAVNELPDLAERIQVAMLNVMEERDIQVRGYTLRLPLDVLVVASANPEDYTNRGRIITPLKDRFGAEIRTHYPLELEAEVGVIRQEAELAAEVPEYLLAVLARFARNLRESNSIDQRSGVSARFAIAAAETVAASARHRAAILGEDDPVARVVDLGTVIDVLRGKLEFETGEEGREQAVLEHLLRRATADTAQRLLGGIDVGPLVAAIEEGSPVTTGERVSAKDVVAALPDLPAIDAIAHRLNAVSVGQRAAAIELALEALYLAKRIDKVSGEGETVYG
notes: H7-SUMO tags were removed with Ulp1 or left intact for microscale thermophoresis; also called Mg chelatase
B3: DnaJ1 (recombinant) (natural protein, M. smegmatis, UniProt A0QQD0 1-390, looked up)
chain: MAQREWVEKDFYKELGVSSDASADEIKKAYRKLAAELHPDRNSDPGAAERFKAVSEANSVLSDPAKRKEYDETRRLFAGGFGRRFNQGGGGFGGGFGSDGVEFNLGDLFDAAGQTGGANIGDLFGGLFGRGPQQRPSRPRRGNDLETETELSFLEATKGVAMPLRLTSPAPCTNCHGSGARPGTSPKVCPSCNGSGVISRNQGAFGFSEPCTECRGSGSIIEHPCQECRGTGVTTRTRTINVRIPPGVEDGQRIRLAGQGEAGLRGAPSGDLYVTVHVRPDKVFGRDGDDLTVTVPVSFHELALGTTLSVPTLDGKVGVRVPKGTSDGRILRVRGRGVPKRSGGHGDLLVTVKVAVPPNLEGEAAEALEAYAKAERASGFDPRAGWAGNV
notes: H7-SUMO tags were removed with Ulp1 or left intact for microscale thermophoresis; also called Chaperone protein DnaJ1

Biological target: T1, ^H7-SUMOClpC1^FLAG (recombinant ClpC1) (M. smegmatis, UniProt A0R574 1-848)
T1 construct: ClpC1 unfoldase, M. smegmatis; used at 0.1 uM (hexamer) in microscale thermophoresis; In the degradation assays (functional rows) ClpC1 stood with ClpP1P2 and its H7-SUMO tag may have been removed; not shown: H7-SUMO, N-terminal, kept; FLAG, C-terminal, kept
T1 sequence (A0R574 whole entry): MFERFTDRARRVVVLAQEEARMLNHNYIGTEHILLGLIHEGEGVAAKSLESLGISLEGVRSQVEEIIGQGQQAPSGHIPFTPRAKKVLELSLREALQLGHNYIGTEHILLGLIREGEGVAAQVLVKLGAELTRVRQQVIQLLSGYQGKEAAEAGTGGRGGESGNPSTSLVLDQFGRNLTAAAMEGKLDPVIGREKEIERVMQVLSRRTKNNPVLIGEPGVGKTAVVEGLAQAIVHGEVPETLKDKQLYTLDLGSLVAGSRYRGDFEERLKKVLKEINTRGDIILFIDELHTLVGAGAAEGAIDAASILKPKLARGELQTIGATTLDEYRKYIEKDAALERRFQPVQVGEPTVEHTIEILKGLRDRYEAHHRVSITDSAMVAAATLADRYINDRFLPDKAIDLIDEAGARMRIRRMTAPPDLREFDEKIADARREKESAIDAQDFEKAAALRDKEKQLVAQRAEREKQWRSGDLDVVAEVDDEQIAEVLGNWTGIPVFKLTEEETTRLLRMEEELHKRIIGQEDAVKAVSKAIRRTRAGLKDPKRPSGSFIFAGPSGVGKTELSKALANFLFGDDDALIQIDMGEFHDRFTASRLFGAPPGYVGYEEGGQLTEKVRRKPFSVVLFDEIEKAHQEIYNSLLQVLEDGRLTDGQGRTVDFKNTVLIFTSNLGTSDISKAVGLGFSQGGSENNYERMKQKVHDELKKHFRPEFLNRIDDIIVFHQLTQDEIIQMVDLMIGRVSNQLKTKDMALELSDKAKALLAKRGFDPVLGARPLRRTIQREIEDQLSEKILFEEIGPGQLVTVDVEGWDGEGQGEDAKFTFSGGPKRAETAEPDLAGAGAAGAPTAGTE
Experiment: MST; Monolith NT.115; 0.1 uM ^H7-SUMOClpC1^FLAG (hexamer) with 0.1 uM His Lite OG488-Tris-NTA-Ni dye, partner titrated; fit to a Hill-form binding equation; apparent (Kapp)
Conditions: both partners purified

| Binder | binding result |
| --- | --- |
| B1 | binds |
| B2 | binds |
| B3 | binds |

— PMC10433963, “Interactome Analysis Identifies MSMEI_3879 as a Substrate of Mycolicibacterium smegmatis ClpC1” (Microbiology Spectrum, 2023)
